Source: publication PMC7933334, “The methyltransferase SETD2 couples transcription and splicing by engaging mRNA processing factors through its SHI domain” (Nature Communications, 2021)

Target: T1, GST-His-hnRNP L RRM2 (162–321) (human, UniProt P14866 162-321)
T1 construct: bait of the GST pull-down; source: E. coli Rosetta 2 (DE3) pLysS, purified (glutathione magnetic beads)
T1 sequence (looked up): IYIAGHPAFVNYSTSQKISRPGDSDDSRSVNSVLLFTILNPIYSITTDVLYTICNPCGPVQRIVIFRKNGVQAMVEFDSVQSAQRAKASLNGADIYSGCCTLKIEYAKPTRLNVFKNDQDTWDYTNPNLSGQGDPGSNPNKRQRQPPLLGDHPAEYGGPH
Assay: pull-down; GST pull-down with recombinant proteins purified from bacteria; GST-His-hnRNP L segments as baits, FLAG-SETD2 fragments as preys; RNase included in the binding assay; western blot with anti-His and anti-FLAG
Details: both partners purified

binding result: binds
B1: FLAG-SETD2 SHI (2114–2263) (domain or fragment, human, UniProt Q9BYW2 2114-2263, looked up)
chain: NKLSTEERRKLFEQEVAQREAQKQQQQMQNLGMTSPLPYDSLGYNAPHHPFAGYPPGYPMQAYVDPSNPNAGKVLLPTPSMDPVCSPAPYDHAQPLVGHSTEPLSAPPPVPVVPHVAAPVEVSSSQYVAQSDGVVHQDSSVAVLPVPAPG
notes: The methods say that proteins were eluted with either glutathione or AcTEV protease; source: E. coli Rosetta 2 (DE3) pLysS, purified (glutathione magnetic beads)
